Data from patent publication US20230392126A1, “TISSUE ORGANOIDS” (priority 2016, published 2023).

Columns and labels:
[1] = hBChE in blood by ELISA, mice grafted with mouse skin organoids; type: in vivo
Text: To efficiently transplant mouse epidermal progenitor cells, a new organotypic culture model with mouse epidermal progenitor cells was developed in vitro by culturing the cells on top of acellularized mouse dermis. Exposure to the air/liquid interface can induce stratification of cultured cells to generate a skin-like organoid in vitro. […] To investigate the potential therapeutic effect of hBChE expression in vivo, we transplanted the organoids to isogenic host animals (CD1 and C57BL/6) (FIGS. 22A and 22B-C). […] Expression of hBChE in grafted animals was stable for more than 10 weeks (FIG. 22H).

[2] = Acquisition of cocaine conditioned place preference (CPP); type: in vivo, mouse; settings: 10 mg/kg cocaine i.p., grafted cocaine-naïve mice
Description: CPP apparatus: The CPP apparatus (FIG. 17; Med Associates, E. Fairfield, VT, USA) consisted of two larger chambers (16.8×12.7×12.7 cm), which were separated by a smaller chamber (7.2×12.7×12.7 cm) as previously described (Yan et al., 2013). […] Time spent in each chamber was measure via photobeam breaks and recorded. CPP was determined on testing days via time spent in the drug-paired side minus time spent in the saline-paired side.
Acquisition of CPP: A biased CPP procedure was used similar to that from a previous study (Yan et al., 2013). Acquisition of CPP consisted of three sequential procedures—pretest, conditioning, and test. […] On Day 6 (test day) mice were allowed to explore the entire chambers for 20 min and time spent in each area was recorded. […]
Next, protection against development of cocaine-seeking was assessed using the conditioned place preference (CPP) paradigm, which is thought to model reward learning and seeking because experimental animals approach and remain in contact with cues that have been paired with the effects of the reward. hBChE-expressing cells were grafted to cocaine-naïve mice with GWT animals as controls. […] As an additional control, ethanol CPP was measured after 4 days of conditioning in GhBChE and GWT mice.

B1: hBChE: modified human butyrylcholinesterase (E30-6, SEQ ID NO: 41), cocaine hydrolase, expressed from engineered epidermal cells / skin grafts (protein)
chain: MHSKVTIICIRFLFWFLLLCMLIGKSHTEDDIIIATKNGKVRGMNLTVFGGTVTAFLGIPYAQPPLGRLRFKKPQSLTKWSDIWNATKYANSCCQNIDQSFPGFHGSEMWNPNTDLSEDCLYLNVWIPAPKPKNATVLIWIYGGGFQTGTSSLHVYDGKFLARVERVIVVSMNYRVGALGFLALPGNPEAPGNMGLFDQQLALQWVQKNIAAFGGNPKSVTLFGESSGAASVSLHLLSPGSHSLFTRAILQSGSANAPWAVTSLYEARNRTLNLAKLTGCSRENETEIIKCLRNKDPQEILLNEAFVVPYGTALGVNFGPTVDGDFLTDMPDILLELGQFKKTQILVGVNKDEGTWFLVGGAPGFSKDNNSIITRKEFQEGLKIFFPGVSEFGKESILFHYTDWVDDQRPENYREALGDVVGDYNFICPALEFTKKFSEWGNNAFFYYFEHRSSKLPWPEWMGVMHGYEIEFVFGLPLERRDNYTKAEEILSRSIVKRWANFAKYGNPNETQNNSTSWPVFKSTEQKYLTLNTESTRIMTKLRAQQCRFWTSFFPKVLEMTGNIDEAEWEWKAGFHRWNNYMMDWKNQFNDYTSKKESCVGL
modifications: Human mutant BChE
- duration of stable hBChE expression in grafted animals ([1]; hosts with intact immune systems): more than 10 weeks
- level of human BChE in the blood ([1]; mice grafted with hBChE-expressing mouse cells): significantly elevated levels of human BChE in the blood
- cocaine CPP after 4 days of place conditioning [2]: showed no such preference
